In patent US20110070238A1 (published 2011):

Target: T1, LAG-3 protein as used in the Biacore analysis (partner not given) (UniProt P18627 23-434, limits assumed)
T1 sequence (looked up): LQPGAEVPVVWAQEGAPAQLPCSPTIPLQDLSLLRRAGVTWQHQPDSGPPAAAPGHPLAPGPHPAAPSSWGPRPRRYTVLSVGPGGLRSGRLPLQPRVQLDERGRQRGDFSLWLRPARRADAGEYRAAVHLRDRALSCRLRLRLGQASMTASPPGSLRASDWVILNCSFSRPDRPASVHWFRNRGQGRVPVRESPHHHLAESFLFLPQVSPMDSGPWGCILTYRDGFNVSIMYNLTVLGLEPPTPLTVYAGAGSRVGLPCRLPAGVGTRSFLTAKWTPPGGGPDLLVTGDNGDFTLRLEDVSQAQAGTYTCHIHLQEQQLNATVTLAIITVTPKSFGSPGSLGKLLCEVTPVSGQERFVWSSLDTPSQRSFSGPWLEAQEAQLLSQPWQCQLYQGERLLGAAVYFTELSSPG
Assay: Biacore (SPR)

B1: A9H12 (580.1E MM H12), murine IgG2a anti-human LAG-3 monoclonal antibody (antibody, V domains shown)
VH: QVQLKESGPGLVAPSQSLSITCTVSGFSLTAYGVNWVRQPPGKGLEWLGMIWDDGSTDYNSALKSRLSISKDNSKSQVFLKMNSLQTDDTARYYCAREGDVAFDYWGQGTTLTVSS
VL: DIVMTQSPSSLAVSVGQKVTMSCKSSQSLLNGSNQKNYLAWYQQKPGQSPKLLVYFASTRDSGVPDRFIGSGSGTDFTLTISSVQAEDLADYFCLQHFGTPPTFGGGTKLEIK
notes: Murine IgG2a from hybridoma; also called A9H12 LAG-3 mAb; hybridoma CNCM I-3755
Q: For B1, which Kd is on record?
A: Its Kd is 0.829 nM.

Q: What about the koff of the same binder?
A: Its koff is 0.00143 s⁻¹.

Q: What about the kon of the same binder?
A: The kon was 1.72e+06 M⁻¹ s⁻¹.

B2: IMP731 (chimeric A9H12 with human IgG1 Fc region) (antibody, V domains shown)
VH: B1 VH
VL: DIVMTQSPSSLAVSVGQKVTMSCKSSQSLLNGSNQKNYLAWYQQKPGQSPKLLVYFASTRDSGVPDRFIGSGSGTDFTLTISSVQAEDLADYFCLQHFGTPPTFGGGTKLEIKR
notes: also called ImmuTune IMP731; IMP371 [sic]
Q: For B2, which Kd is on record?
A: Its Kd is 0.551 nM.

Q: What about the koff of the same binder?
A: The koff was 0.00112 s⁻¹.

Q: What about the kon of the same binder?
A: Its kon is 2.03e+06 M⁻¹ s⁻¹.
